In test [1] the target is T1, parental receptor binding domain (RBD) protein (amino acids 319 to 541 of the spike protein) with c-terminal … (SARS-CoV-2 (Wuhan-Hu-1), UniProt P0DTC2 319-541).
For test [2], the target named is T2, SARS CoV-2 spike trimer protein from the parental Wuhan-Hu-1 isolate (extracellular domain, furin-cl (SARS-CoV-2 (Wuhan-Hu-1))).
Test [3] has as its target T3, SARS-CoV-2 (Wuhan-Hu-1) wild-type (WT) spike protein carried on pseudotyped virus or on live wild-type virus (SARS-CoV-2 (Wuhan-Hu-1), UniProt P0DTC2 14-1273). Kind of test: cell-based or functional assay.
For test [4], the target named is T1, parental receptor binding domain (RBD) …. Put plainly: ELISA, RBD coated, IgG detected with anti-human Fc-HRP. (In an ELISA, binding on a coated surface is turned into a signal by an enzyme label.)
In test [5] the target is T3, SARS-CoV-2 (Wuhan-Hu-1) wild-type (WT) …. Put plainly: cell-based or functional assay. This is another data set of the same source.
In test [6] the target is T2, SARS CoV-2 spike trimer protein from …. The source holds these as a separate data set.
In test [7] the target is recombinant stabilized spike protein derived from the beta strain (formerly described as the South A (SARS-CoV-2 (B.1.351), UniProt P0DTC2 14-1208)).
For test [8], the target named is T2, SARS CoV-2 spike trimer protein from …. Put plainly: ELISA, spike protein coated, IgG detected with anti-human Fc-HRP.
For test [9], the target named is T4, SARS-CoV-2 B.1.351 ('SA', beta) variant spike protein on pseudotyped virus or live virus (SARS-CoV-2 (B.1.351), UniProt P0DTC2 14-1273). Kind of test: cell-based or functional assay.
The target of test [10] is T4, SARS-CoV-2 B.1.351 ('SA', beta) variant …. Put plainly: cell-based or functional assay. This is another data set of the same source.
Test [11] deals with SARS-CoV-2 spike protein variant 484K on pseudotyped virus (SARS-CoV-2, UniProt P0DTC2 14-1273). Kind of test: cell-based or functional assay.
The target in test [12] is S protein of a SARS-CoV-2 delta lineage virus on pseudotyped virus (SARS-CoV-2 (delta lineage)). Kind of test: cell-based or functional assay.

Read-outs that look alike come from different tables or passages of the source.

B1: R2G3 ultralong CDR3 chimeric bovine-human IgG1 antibody (antibody)
VH: QVQLRESGPSLVKPSQTLSLTCAASGFSLSDKAVGWVRRAPGKALEWLGSIDTGGSTGYNPGLKSRLSITKDNSKSQVSLSISSVTSEDSATYYCATVHQKTAEGDKTCPDGYEHTCGCIGGCGCKRSACIGALCCQASLGGWLSDGETYTYEFHVDTWGQGLVVTVSS
VL: QAVLNQPSSVSGSLGQRVSITCSGSSSNVGNGYVSWYQLIPGSAPRTLIYGDTSRASGVPDRFSGSRSGNTATLTISSLQAEDEADYFCASAEDSSSNAVFGSGTTLTVL
Turning to B1, the “EC50 (read off the curve)” value is about 0.02 nM in [1], about 0.01 nM in test [2], about 0.4 nM in test [6] and about 0.2 nM in [7]. Besides, the “live SARS CoV-2 neutralization, ng/mL (quantity not given)” value in test [3] came out at 0.5 ng/mL. Further, the “pseudovirus neutralization, ng/mL (quantity not given)” value in test [3] is 0.2 ng/mL. The concentration for a half-maximal effect (EC50) in [4] worked out at 0.056 nM. In test [5], the “pseudovirus neutralization IC50 (luciferase assay)” value was over 1 ng/mL.

B2: R2C3 (R5C1) ultralong CDR3 chimeric bovine-human IgG1 antibody (antibody)
VH: QVQLRESGPSLVKPSQTLSLTCTASGFSLSDKPVGWVRQAPGKPLEWLGSIDTAENTGYNPGLKSRLSITKDNSKSQVSLSLSSVTTEDSATYYCATVHQKTRKEKSCPDGYLYSSNTGRGYDCGVWTCRRVGGEFCSATGDWTSPSEEDFYEFYVDTWGQGAPVTVSS
VL: QAVLNQPSSVSGSLGQRVSITCSGSSSNVGNGYVSWYQLIPGSAPRTLIYGDTSRASGVPDRFSGSRSGNTATLTISSLQAEDEADYFCASAEDSSSNAVFGSGTTLTVL
Turning to B2, in [8], the EC50 was determined as 0.39 nM. For the same molecule, the “EC50 (read off the curve)” value in [6] and in test [7] was about 0.3 nM each time.

B3: SKM ultralong CDR3 chimeric bovine-human IgG1 antibody (antibody)
VH: QVQLRESGPSLVKPSQTLSLTCTASGFSLSDKAVGWVRQAPGKALEWLGSIDTGGNTGYNPGLKSRLSITKDNSKSQVSLSVSSVTTEDSATYYCTTVHQETLRSCPDGYIDNSGCTADWGCAALDCWRRRFGYHSTDPSHYTGATYIYTYSLHIDAWGQGLLVTVSS
VL: QAVLNQPSSVSGSLGQRVSITCSGSSSNVGNGYVSWYQLIPGSAPRTLIYGDTSRASGVPDRFSGSRSGNTATLTISSLQAEDEADYFCASAEDSSSNAVFGSGTTLTVL
As for B3, in test [9], the “pseudovirus neutralization, ng/mL (quantity not given)” value is over 1000 ng/mL. For the same molecule, the “pseudovirus luciferase assay EC50” value in [10] and in [11] was over 1 nM in each case.

B4: RBD F4 chimeric bovine-human IgG1 antibody (antibody, V domains shown)
VH: QVQLRESGPSLVKPSQTLSLTCTVSGFSLSSNGVVWVRQAPGKALEWLGDICSTGGTSFNPALKSRLSIAKDNSKSQVSLSVRSVTPEDTATYYCARSRGYDCYANVDALDYVDAWGQGLLVTVSS
VL: QAVLNQPSSVSGSLGQRVSITCSGSSSNVGNGYVSWYQLIPGSAPRTLIYGDTSRASGVPDRFSGSRSGNTATLTISSLQAEDEADYFCASAEDSSSNAVFGSGTTLTVL
With B4, the EC50 in [4] and in test [8] was 0.03 nM in each case.

B5: R2D6 chimeric bovine-human IgG1 antibody (antibody, V domains shown)
VH: QVQLRESGPSLVKPSQTLSLTCTTSGFSLSSYAVGWVRQAPGKALEWVGDIDYVGNTDYNPALKSRLSITKDNSKSQVSLVVSSVTAEDAATYYCAKYSGAYAYAACNYYGWRCAWESYIDAWGQGLLVTVSS
VL: QAVLNQPSSVSGSLGQRVSITCSGSSSNVGNGYVSWYQLIPGSAPRTLIYGDTSRASGVPDRFSGSRSGNTATLTISSLQAEDEADYFCASAEDSSSNAVFGSGTTLTVL
As for B5, the EC50 in test [4] turned out to be 0.57 nM; in test [8], 0.41 nM.

B6: R2D9 ultralong CDR3 chimeric bovine-human IgG1 antibody (antibody)
VH: QVQLRESGPSLVKPSQTLSLTCTASGFSLSDKAIGWVRQAPGKALEWLGSIDTRGNTGYNPGLKSRLSITKDSSKSQVSLSVNSVTTEDSATYLCAIVQQITHKTCPNGYNWFDRCCSWDGTCGDGCCSNRAWPSGNGRADSSIGETYGYEFHVAAWGQGLLVTVSS
VL: QAVLNQPSSVSGSLGQRVSITCSGSSSNVGNGYVSWYQLIPGSAPRTLIYGDTSRASGVPDRFSGSRSGNTATLTISSLQAEDEADYFCASAEDSSSNAVFGSGTTLTVL
Regarding B6, the figures for the “pseudovirus neutralization, ng/mL (quantity not given)” value in [9], in [12] and in [3] were 0.33 ng/mL, 0.32 ng/mL and 0.26 ng/mL, respectively.

B7: SKD ultralong CDR3 chimeric bovine-human IgG1 antibody (antibody)
VH: QVQLRESGPSLVKPSQTLSLTCTASGFSLSDKAVGWVRQAPGKALEWLGSIDTGGNTGYNPGLKSRLSITKDNSKSQVSLSVSSVTTEDSATYYCTTVHQRTSEKRSCPGGSSRRYPSGASCDVSGGACACYVSNCRGVLCPTLNEIVAYTYEWHVDAWGQGLLVTVSS
VL: QAVLNQPSSVSGSLGQRVSITCSGSSSNVGNGYVSWYQLIPGSAPRTLIYGDTSRASGVPDRFSGSRSGNTATLTISSLQAEDEADYFCASAEDSSSNAVFGSGTTLTVL
Regarding B7, in test [9], the “pseudovirus neutralization, ng/mL (quantity not given)” value was over 1000 ng/mL. Also, the “pseudovirus luciferase assay EC50” value in [10] and in test [11] was over 1 nM each time.

B8: R2F12 ultralong CDR3 chimeric bovine-human IgG1 antibody (antibody)
VH: QVQLRESGPSLVKPSQTLSLTCTVSGFSLSDKAVGWVRRAPGKALEWLGSIDTGGMTGYNPGLKSRLSITKDNSKSQVSLSVNSVTTEDSATYYCATVDQKTKNACPDDFDYRCSCIGGCGCARKGCVGPLCCRSDLGGYLTDSPAYIYEWYIDLWGQGLLVTVSS
VL: QAVLNQPSSVSGSLGQRVSITCSGSSSNVGNGYVSWYQLIPGSAPRTLIYGDTSRASGVPDRFSGSRSGNTATLTISSLQAEDEADYFCASAEDSSSNAVFGSGTTLTVL
Take B8: the “EC50 (read off the curve)” value is about 0.03 nM in [1], about 0.02 nM in test [2], about 0.3 nM in test [6] and about 0.2 nM in [7]. The EC50 was 0.085 nM in test [4] and 0.05 nM in test [8].

B9: R2B1 chimeric bovine-human IgG1 antibody (antibody, V domains shown)
VH: QVQLRESGPSLVKPSQTLSLTCTVSGFSLSDNNVGWVRQAPGKALEWLGVMHNDGNKGYNPALKSRLSITKDSSKSQVSLSLSSVTSEDTATYYCTRDNARCDSWTYDSCDTWYRNSWHVDAWGQGLLVTVSS
VL: QAVLNQPSSVSGSLGQRVSITCSGSSSNVGNGYVSWYQLIPGSAPRTLIYGDTSRASGVPDRFSGSRSGNTATLTISSLQAEDEADYFCASAEDSSSNAVFGSGTTLTVL
On to B9, for which the concentration for a half-maximal effect (EC50) in test [4] is 0.52 nM; in test [8], 0.37 nM.

B10: R4C1 ultralong CDR3 chimeric bovine-human IgG1 antibody (antibody)
VH: QVQLRESGPSLVKPSQTLSLTCTASGFSLSDKAVGWVRQAPGKPLEWLGSIDTAENTGYNPGLKSRLSITKDNSKSQVSLSVSSVTTEDSATYYCATVHQKTRKEKNCPDGYIYSSNTASGYDCGVWICRRVGSAFCSRTGDYTSPSEFDIYEFYVEGWGQGLLVTVSS
VL: QAVLNQPSSVSGSLGQRVSITCSGSSSNVGNGYVSWYQLIPGSAPRTLIYGDTSRASGVPDRFSGSRSGNTATLTISSLQAEDEADYFCASAEDSSSNAVFGSGTTLTVL
For B10, the entries for the “pseudovirus neutralization, ng/mL (quantity not given)” value in [9] and in test [3] were 375 ng/mL and 99.9 ng/mL, respectively.

B11: RBD C6 chimeric bovine-human IgG1 antibody (antibody, V domains shown)
VH: QVQLRESGPSLVKPSQTLSLTCTVSGFSLSSNGVVWVRQAPGRPLEWLGDICSNGGTSFNPALKSRLSIAKDNSESQVSLTVRSVTPEDTATYYCARSRGYDCYAYVYALDTVDAWGQGLLVTVSS
VL: QAVLNQPSSVSGSLGQRVSITCSGSSSNVGNGYVSWYQLIPGSAPRTLIYGDTSRASGVPDRFSGSRSGNTATLTISSLQAEDEADYFCASAEDSSSNAVFGSGTTLTVL
Regarding B11, the EC50 in test [4] and in test [8] was 0.03 nM throughout.

B12: SR3A3 ultralong CDR3 chimeric bovine-human IgG1 antibody (antibody)
VH: QVQLRESGPSLVKPSQTLSLTCTISGFSLSSYAVLWVRQAPGKPLEWLGSIDTAENTGYNPGLKSRLSITKDNSKSQVSLSVSSVTTEDSATYYCATVHQKTRKEKNCPDGYIYSSNITSGFDCGVWICRRVGSAFCSRTGDYTSPTELDIYEFYVEGWGQGVPVTVSS
VL: QAVLNQPSSVSGSLGQRVSITCSGSSSNVGNGYVSWYQLIPGSAPRTLIYGDTSRASGVPDRFSGSRSGNTATLTISSLQAEDEADYFCASAEDSSSNAVFGSGTTLTVL
Consider B12, for which the binding result in test [4] is “binds”. The EC50 in test [8] was 0.037 nM.

B13: RBD A2 chimeric bovine-human IgG1 antibody (antibody, V domains shown)
VH: QVQLRESGPSLVKPLQILSLTCTVSGFSLSSNGVVWVRQAPGKALEWLGDICSTGGTSFNPALKSRLSIAKDNSKSQVSLSVRSVTPEDTATYYCARSRGYDCYANVDALDYVDAWGQGLLVTVSS
VL: QAVLNQPSSVSGSLGQRVSITCSGSSSNVGNGYVSWYQLIPGSAPRTLIYGDTSRASGVPDRFSGSRSGNTATLTISSLQAEDEADYFCASAEDSSSNAVFGSGTTLTVL
On to B13, for which the EC50 in test [4] amounted to 0.03 nM; in test [8], 0.024 nM.

By EC50 (read off the curve) is commonly meant the concentration needed to bring the measured effect to its halfway point. In general, EC50 refers to the concentration giving half of the maximal effect.

The values are drawn from US20240262893A1 (APPLIED BIOMEDICAL SCIENCE INSTITUTE, published 2024).
